Reference: the supplement of paper PMC11780869

Tested on: Bacillus subtilis
Experiment: cleaved RNA product abundance (RNA/gDNA barcode ratio) relative to median wild-type variant (ratio to wild type); higher = more accumulation of the downstream cleavage product
Summary of the method: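 Cleaved product abundance is expressed as the RNA:gDNA barcode ratio per construct, scaled to the median construct carrying the unmutated site. The constructs were barcoded, mutagenized RNase Y cleavage-site windows in truncated aprE or tetM reporter mRNAs integrated into the B. subtilis chromosome. Cultures grew in LB at 37°C from OD600 0.0003 to 0.3 before cleaved RNA was gel-selected and barcode-sequenced.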

[1] = experiment (reporter, strain, medium): exp 2b: truncated aprE reporter, strain BJT200, cleavage site: cggR-gapA (positions -7 to +36 mutated)
[2] = experiment (reporter, strain, medium): exp 4a: truncated aprE reporter, strain BJT201 with 2% xylose (RNase J1 expressed), cleavage site: cggR-gapA (positions -7 to +36 mutated)
[3] = experiment (reporter, strain, medium): exp 8a: truncated aprE reporter, strain BJT201 with 2% xylose (RNase J1 expressed), cleavage site: glnRA (positions -5 to +31 mutated)
[4] = experiment (reporter, strain, medium): exp 6: tetM reporter, strain 168, cleavage site: cggR-gapA (positions -7 to +36 mutated)

| Sequence | cleaved RNA product abundance [1] | cleaved RNA product abundance [2] | other results |
| --- | --- | --- | --- |
| ACAGACGAAGGAGCCGCAAAGAAGTTATTAAAGGATGAATAATCCCTCAATGTAAATATCTCTCACTTATTTAAA | 0.0901 | 0.0731 | – |
| ACAGACGAAGGAGCCGCAAATAAGTTATTAAGGCATGAATAATCCCTCAATATAAATATCTCTCACTTATTTAAA | 0.0924 | 0.0954 | – |
| ACAGACGAAGGAGCCGCAAAGAAGTTATTAAGAGATGAATAATCCCTCAATATAAATTTCTCTCACTTATTTAAA | – | 0.164 | – |
| ACAGACGAAGGAGCCGCATAGAAGTTATTAAGGAATGAATAATCCCTCAATATAAATATCTCTCACTTATTTAAA | 0.082 | 0.135 | – |
| CGACATGTCCCGCTTCTTTCATTAATCCGTTAGCAAATGTTTTGCTATAAACATTTACCTTTTAAGAGGAGGAAT | – | – | cleaved RNA product abundance [3]: 0.584 |
| ACAGACGAAGGAGCCGCAAAGCAGTTAATAAGGGATGAATAATCCCTCAATATAAATATCTCTCACTTATTTAAA | – | 0.298 | – |
| ACAGACGAAGGAGCCGCAAAGAAGTTATTAAGGGATGAATGATCCCTGAATATAAATATCTCTCACTTATTTAAA | – | 0.383 | – |
| ACAGACGAAGGAGCCGCAAAGAAGTTATTAAGGGATGAACTATCCCTCAATATAAATATCTCTCACTTATTTAAA | – | 0.794 | – |
| ACAGACGAAGGAGCCGCACAGAAGTTATTAAGGGATGAATAATCCCTCAATATAAAGATCTCTCACTTATTTAAA | – | 0.549 | – |
| ACAGACGAAGGAGCCGCAAAGAAGTTATTAAGGCATGAATAATACCTCAATATAAATATCTCTCACTTATTTAAA | 0.0988 | 0.153 | – |
| ACAGACGAAGGAGCCGCAAAGAAGTTATTAAGTAATGAATAACCCCTCAATATAAATATCTCTCACTTATTTAAA | 0.084 | 0.127 | – |
| ACAGACGAAGGAGCCGCAAAGAAGTTATTGAGGGCTGAATAATCCCTCAATATAAATATCTCTCACTTATTTAAA | – | 0.167 | – |
| ACAGACGAAGGAGCCGCAAAGAAGTTATTAAGGTATTAATAATCCCTCAATATAAATATCTCTCACTTATTTAAA | 0.0984 | 0.169 | – |
| ACAGACGAAGGAGCCGCATAGAAGTTATTAAGGGATGAATAATCGCTCAATATAAATATCTCTCACTTATTTAAA | – | 0.141 | – |
| ACAGACGAAGGAGCCGCAAACAAGTTATTAAGGGATGTATAATCCCTCAATATAAATATCTCTCACTTATTTAAA | – | 0.478 | – |
| CGACATGTCCCGCTTCTTTCATTATTCCGTAAGCAACTGTTTTGCTATATACATTTACCTTTTAAGAGGAGGAAT | – | – | cleaved RNA product abundance [3]: 0.594 |
| ACAGACGAAGGAGCCGCAAAGAAGTTATTAAGGGATGAACAATCGCTCAATATAAATATCTCTCACTTATTTAAA | – | 0.104 | – |
| ACAGACGAAGGAGCCGCAAAGAAGTTATAAAGGGATGAATAATCTCTCAATATAAATATCTCTCACTTATTTAAA | – | 0.338 | – |
| ACAGACGAAGGAGCCGCAAAGAAGTTATTAAAGGAAGAATAATCCCTCAATATAAATATCTCTCACTTATTTAAA | 0.0711 | 0.112 | – |
| CGACATGTCCCGCTTCTTTCATTAATCCGTTAGCAACTGTTTTGCTATATAAATCTACCTTTTAAGAGGAGGAAT | – | – | cleaved RNA product abundance [3]: 1.49 |
| CGACATGTCCCGCTTCTTTCATTAATCCGTCAGAAACTGTTTTGCTATATACATTTACCTTTTAAGAGGAGGAAT | – | – | cleaved RNA product abundance [3]: 0.185 |
| ACAGACGAAGGAGCCGCAATGAAGTTATTAAGGGATTAATAATCCCTCAATATAAATATCTCTCACTTATTTAAA | 0.989 | 1.06 | – |
| CGACATGTCCCGCTTCTTTCATTAATCCGTAAGCATCTGTTTTGCTATATACATTTACCTTTTAAGAGGAGGAAT | – | – | cleaved RNA product abundance [3]: 0.322 |
| ACAGACGAAGGAGCCGCATAGAAGTTATTAAGGGATGAATAATCCCTTAATATAAATATCTCTCACTTATTTAAA | 1.12 | 0.448 | – |
| CGACATGTCCCGCTTCTTTCATTATTCCGTTAGCAACTGTTTTGCTATATACATTTACCGTTTAAGAGGAGGAAT | – | – | cleaved RNA product abundance [3]: 1.18 |
| ACAGACGAAGGAGCCGCAAAGAAGTTATTAAGGGATGAAAACTCCCTCAATATAAATATCTCTCACTTATTTAAA | 0.816 | – | – |
| ACAGACGAAGGAGCCGCAAAGAAGTTATTAAAGGATGAATAGTCCCTCAATATAAATATCTCTCACTTATTTAAA | 0.124 | – | – |

| Sequence | cleaved RNA product abundance [1] | cleaved RNA product abundance [2] | other results |
| --- | --- | --- | --- |
| CGACATGTCCCGCTTCTTTCATTAATCCGTTAGCAACTGAGTTGCTATATACATTTACCTTTTAAGAGGAGGAAT | – | – | cleaved RNA product abundance [3]: 0.261 |
| ACAGACGAAGGAGCCGCAAAGAAGTTATTAAGGGATGAATACTCACTCAATATAAATATCTCTCACTTATTTAAA | – | 0.0953 | – |
| ACAGACGAAGGAGCCGCAAAGACGTTATTAAGGGATGAATAATCACTCAATATAAATATCTCTCACTTATTTAAA | 0.101 | 0.188 | – |
| CGACATGTCCCGCTTCTTTCATTAATCCGTTAGCAACTGTTTTGCTATATGCATTTACCTTTTAAGAGGAGGAAT | – | – | cleaved RNA product abundance [3]: 0.239 |
| CGACATGTCCCGCTTCTTTCATTAATCCGTAAGGAACTGTTTTGCTATATACATTTACCTTTTAAGAGGAGGAAT | – | – | cleaved RNA product abundance [3]: 0.32 |
| ACAGACGAAGGAGCCGCAAAGAAGTTATTAAGAGATGAATAATCCCTCAATTTAAATATCTCTCACTTATTTAAA | 0.0971 | 0.0573 | – |
| CGACATGTCCCGCTTCTTTCATTAATCAGTTAGCAACTGTTATGCTATATACATTTACCTTTTAAGAGGAGGAAT | – | – | cleaved RNA product abundance [3]: 0.578 |
| CGACATGTCCCGCTTCTTTCATTAATCCGTTAACAACTGTTATGCTATATACATTTACCTTTTAAGAGGAGGAAT | – | – | cleaved RNA product abundance [3]: 0.219 |
| ACAGACGAAGGAGCCGCAAAGAATTTATTAAGGGATGAATAATCCCTCAATATAGATATCTCTCACTTATTTAAA | – | 0.431 | – |
| ACAGACGAAGGAGCCGCAAAGAAGTTATGAAGGTATGAATAATCCCTCAATATAAATATCTCTCACTTATTTAAA | 0.113 | 0.0823 | – |
| ACAGACGAAGGAGCCGCAAAGAAGTTATTAAGGGAAGAATAATCCCTCCATATAAATATCTCTCACTTATTTAAA | – | 0.202 | – |
| ACAGACGAAGGAGCCGCAACGAAGTTATTAAGGGATGAATACTCCCTCAATATAAATATCTCTCACTTATTTAAA | – | 0.55 | – |
| ACAGACGAAGGAGCCGCAAAGAAGATATTAAGGGATGAATAATCCCTCAATATAAAAATCTCTCACTTATTTAAA | – | 0.576 | – |
| ACAGACGAAGGAGCCGCATAGAAGTTATCAAGGGATGAATAATCCCTCAATATAAATATCTCTCACTTATTTAAA | – | 0.549 | – |
| ACAGACGAAGGAGCCGCAAAGAAGTTATTAAGGGATGAATTATCCCACAATATAAATATCTCTCACTTATTTAAA | – | 0.319 | – |
| CGACATGTCCCGCTTCTTTCATTAATCCGTTAGCAATGGTTTTGCTATATACATTTACCTTTTAAGAGGAGGAAT | – | – | cleaved RNA product abundance [3]: 1.08 |
| ACAGACGAAGGAGCCGCAAAGAAGTTATTAAGGGATGAATAATCTCTCAATATAAATATCTCTCACTTATTTAAA | 0.688 | 0.738 | cleaved RNA product abundance [4]: 0.96 |
| ACAGACGAAGGAGCCGCAAAGAAGTTACTAAGGGATGAATAATCCCTCATTATAAATATCTCTCACTTATTTAAA | 0.218 | 0.342 | – |
| CGACATGTCCCGCTTCTTTCATTATTCCGTTAGCAACTGTTTTGCTATATACGTTTACCTTTTAAGAGGAGGAAT | – | – | cleaved RNA product abundance [3]: 0.645 |
| ACAGACGAAGGAGCCGCAAAGAAGTTATTAAGGGATGAATCATCCCCCAATATAAATATCTCTCACTTATTTAAA | – | 0.296 | – |
| ACAGACGAAGGAGCCGCACAGAAGTTATTAATGGATGAATAATCCCTCAATATAAATATCTCTCACTTATTTAAA | 0.103 | 0.165 | – |
| CGACATGTCCCGCTTCTTTCATTAATCCGTTACCAACTGTTTTGCTATATACATTTACATTTTAAGAGGAGGAAT | – | – | cleaved RNA product abundance [3]: 0.209 |
| CGACATGTCCCGCTTCTTTCATTAATCCGTTACCAACTGTTTTGCGATATACATTTACCTTTTAAGAGGAGGAAT | – | – | cleaved RNA product abundance [3]: 0.264 |
| ACAGACGAAGGAGCCGCAAAAAAGTTATTAAGGGATGAATAATCTCTCAATATAAATATCTCTCACTTATTTAAA | 0.703 | 0.694 | cleaved RNA product abundance [4]: 0.897 |
| ACAGACGAAGGAGCCGCAAATAAATTATTAAGGAATGAATAATCCCTCAATATAAATATCTCTCACTTATTTAAA | – | 0.195 | – |
| ACAGACGAAGGAGCCGCAAAGAAGTTATTAAGGGATGAATAATCCCTCAATATAAATGTCTCTCACTTATTTAAA | 0.498 | 0.636 | cleaved RNA product abundance [4]: 0.546 |
